This test concerns the target vimentin (UniProt P08670). Put plainly: co-immunoprecipitation, FAK-FLAG and endogenous vimentin. The following applies: reference: WT FAK-FLAG; sites Y397.

In the case of “focal adhesion kinase (FAK) (from UniProt Q05397) Y397F FAK-FLAG”, the “binding against the reference” value is “weaker”.

For the origin of these results see paper PMC4245398.
